Reference: paper PMC5587394 (Structure (London, England : 1993), 2017)

Biological target: FGF9^WT (human FGF9, residues 35-208) (human, UniProt P31371 35-208)
Assay: SPR

B1: FGFR1c^ecto/WT (human FGFR1c ectodomain, residues 141-365) (domain or fragment)
chain: TDNTKPNRMPVAPYWTSPEKMEKKLHAVPAAKTVKFKCPSSGTPNPTLRWLKNGKEFKPDHRIGGYKVRYATWSIIMDSVVPSDKGNYTCIVENEYGSINHTYQLDVVERSPHRPILQAGLPANKTVALGSNVEFMCKVYSDPQPHIQWLKHIEVNGSKIGPDNLPYVQILKTAGVNTTDKEMEVLHLRNVSFEDAGEYTCLAGNSIGLSHHSAWLTVLEALEER
B1: binds.
